What was measured:
[1] = molecular target: T1, ETV2 (UniProt O00321 1-342); experiment: EMSA; least pronounced shift of the four; abolished by 50-fold WT competitor; EMSA: 3 µl TNT ETV2, 30 min at 4 °C; 4% native polyacrylamide gel, 0.5x TBE, 120 V 2 h; binding buffer, salt and pH not stated; conditions: protein: ivt; label: 32P (probe); blunt
T1 sequence: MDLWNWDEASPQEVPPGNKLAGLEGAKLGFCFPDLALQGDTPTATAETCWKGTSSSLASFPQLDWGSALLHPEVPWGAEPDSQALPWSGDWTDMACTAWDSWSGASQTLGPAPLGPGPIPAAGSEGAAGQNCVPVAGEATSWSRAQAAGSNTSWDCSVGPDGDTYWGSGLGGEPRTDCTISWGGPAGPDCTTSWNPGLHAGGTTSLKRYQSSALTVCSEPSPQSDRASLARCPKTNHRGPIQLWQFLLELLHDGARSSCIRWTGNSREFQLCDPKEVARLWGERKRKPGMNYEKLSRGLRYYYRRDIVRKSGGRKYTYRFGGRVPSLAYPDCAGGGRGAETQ

[2] = molecular target: T1, ETV2; experiment: competition; 50-fold excess vs ETS(2) probe, EMSA; EMSA: 3 µl TNT ETV2, 30 min at 4 °C; 4% native polyacrylamide gel, 0.5x TBE, 120 V 2 h; binding buffer, salt and pH not stated; conditions: protein: ivt; blunt ends, 2 internal mismatches as printed
[3] = molecular target: T1, ETV2; experiment: competition; 50-fold excess vs ETS(4) probe, EMSA; EMSA: 3 µl TNT ETV2, 30 min at 4 °C; 4% native polyacrylamide gel, 0.5x TBE, 120 V 2 h; binding buffer, salt and pH not stated; conditions: protein: ivt; blunt
[4] = molecular target: T1, ETV2; experiment: EMSA; third strongest shift; abolished by 50-fold WT competitor; EMSA: 3 µl TNT ETV2, 30 min at 4 °C; 4% native polyacrylamide gel, 0.5x TBE, 120 V 2 h; binding buffer, salt and pH not stated; conditions: protein: ivt; label: 32P (probe); blunt
[5] = molecular target: T1, ETV2; experiment: EMSA; second strongest shift; abolished by 50-fold WT competitor; EMSA: 3 µl TNT ETV2, 30 min at 4 °C; 4% native polyacrylamide gel, 0.5x TBE, 120 V 2 h; binding buffer, salt and pH not stated; conditions: protein: ivt; label: 32P (probe); blunt
[6] = molecular target: T1, ETV2; experiment: competition; 50-fold excess vs ETS(3) probe, EMSA; EMSA: 3 µl TNT ETV2, 30 min at 4 °C; 4% native polyacrylamide gel, 0.5x TBE, 120 V 2 h; binding buffer, salt and pH not stated; conditions: protein: ivt; blunt
[7] = molecular target: T1, ETV2; experiment: competition; 50-fold excess vs ETS(1) probe, EMSA; EMSA: 3 µl TNT ETV2, 30 min at 4 °C; 4% native polyacrylamide gel, 0.5x TBE, 120 V 2 h; binding buffer, salt and pH not stated; conditions: protein: ivt; blunt
[8] = molecular target: T1, ETV2; experiment: EMSA; strongest shift of the four; abolished by 50-fold WT competitor; EMSA: 3 µl TNT ETV2, 30 min at 4 °C; 4% native polyacrylamide gel, 0.5x TBE, 120 V 2 h; binding buffer, salt and pH not stated; conditions: protein: ivt; label: 32P (probe); blunt

B1: ETS(4) (dsDNA)
DNA 1: CCCCTCCTTCCCTCTTCACTG
DNA 2: CAGTGAAGAGGGAAGGAGGGG
B1: binds [1].

B2: ETS(2)mut (dsDNA)
DNA 1: CATCGGTTAGGTTCAAGCCGC
DNA 2: GCGGCTTTGACCTAACCGATG
B2: no binding [2].

B3: ETS(4)mut (dsDNA)
DNA 1: CCCCTCCTAGGCTCTTCACTG
DNA 2: CAGTGAAGAGCCTAGGAGGGG
B3: no binding [3].

B4: ETS(3) (dsDNA)
DNA 1: CAAAGCCGCTTCCCTCCTGGG
DNA 2: CCCAGGAGGGAAGCGGCTTTG
B4: binds [4].

B5: ETS(2) (dsDNA)
DNA 1: CATCGGTTTCCTCAAAGCCGC
DNA 2: GCGGCTTTGAGGAAACCGATG
B5: binds [5].

B6: ETS(3)mut (dsDNA)
DNA 1: CAAAGCCGCTAGGCTCCTGGG
DNA 2: CCCAGGAGCCTAGCGGCTTTG
B6: no binding [6].

B7: ETS(1)mut (dsDNA)
DNA 1: GGGCCAGGCACCTAGCATCGG
DNA 2: CCGATGCTAGGTGCCTGGCCC
B7: no binding [7].

B8: ETS(1) (dsDNA)
DNA 1: GGGCCAGGCAGGAAGCATCGG
DNA 2: CCGATGCTTCCTGCCTGGCCC
B8: binds [8].
